From publication PMC10578477, “Biochemical and genetic dissection of the RNA-binding surface of the FinO domain of Escherichia coli ProQ”
Residue numbers refer to the chain shown, from its start.

T1: ProQ NTD R32A R32A (Escherichia coli) (UniProt P45577)
T1 sequence: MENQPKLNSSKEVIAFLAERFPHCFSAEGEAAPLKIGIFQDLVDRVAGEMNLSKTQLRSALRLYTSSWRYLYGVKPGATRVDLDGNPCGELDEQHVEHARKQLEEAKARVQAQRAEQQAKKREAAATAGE

T2: ProQ NTD D41A D41A (Escherichia coli) (UniProt P45577)
T2 sequence: T1 sequence with A32R, D41A

T3: ProQ NTD K35A K35A (Escherichia coli) (UniProt P45577)
T3 sequence: T1 sequence with A32R, K35A

T4: ProQ NTD R58A R58A (Escherichia coli) (UniProt P45577)
T4 sequence: T1 sequence with A32R, R58A

T5: ProQ NTD T65A T65A (Escherichia coli) (UniProt P45577)
T5 sequence: T1 sequence with A32R, T65A

T6: ProQ NTD R62A R62A (Escherichia coli) (UniProt P45577)
T6 sequence: T1 sequence with A32R, R62A

T7: ProQ NTD R69A R69A (Escherichia coli) (UniProt P45577)
T7 sequence: T1 sequence with A32R, R69A

T8: ProQ NTD K54A K54A (Escherichia coli) (UniProt P45577)
T8 sequence: T1 sequence with A32R, K54A

T9: ProQ NTD Y70F Y70F (Escherichia coli) (UniProt P45577)
T9 sequence: T1 sequence with A32R, Y70F

T10: ProQ NTD K35A (Escherichia coli, UniProt P45577 1-130, K35A)
T10 sequence: T1 sequence with A32R, K35A

T11: ProQ NTD R69A (Escherichia coli, UniProt P45577 1-130, R69A)
T11 sequence: T1 sequence with A32R, R69A

T12: ProQ NTD R80K (Escherichia coli, UniProt P45577 1-130, R80K)
T12 sequence: T1 sequence with A32R, R80K

T13: ProQ NTD R80A (Escherichia coli, UniProt P45577 1-130, R80A)
T13 sequence: T1 sequence with A32R, R80A

T14: ProQ NTD R62A (Escherichia coli, UniProt P45577 1-130, R62A)
T14 sequence: T1 sequence with A32R, R62A

T15: ProQ NTD D41A (Escherichia coli, UniProt P45577 1-130, D41A)
T15 sequence: T1 sequence with A32R, D41A

T16: ProQ NTD T65A (Escherichia coli, UniProt P45577 1-130, T65A)
T16 sequence: T1 sequence with A32R, T65A

B1: cspE-mini-5'-blunt (structured_RNA)
RNA: GGAAGGCGCUUAAUCAGCGCCUUUUUUUU
B2: cspE-mini (structured_RNA)
RNA: GGAAUUCGGAAGGCGCUUAAUCAGCGCCUUUUUUUU
B3: cspE-mini-3'-6U (structured_RNA)
RNA: GGAAUUCGGAAGGCGCUUAAUCAGCGCCUUUUUU
B4: cspE-3' (structured_RNA)
RNA: GUAAGAUACGUCAGCAAGAAUUCAAAACCCGCUUAAUCAGCGGGUUUUUUUU

Experiments:
[1] = target: T1, ProQ NTD R32A R32A (Escherichia coli); assay: EMSA; conditions: EMSA: 25 mM Tris pH 7.5, 150 mM NaCl, 5% glycerol, 1 mM MgCl2, 1 nM 32P-RNA, 30 min RT; microplates pretreated with 0.0025% BSA; 6% gel in 0.5x TBE at 4 C
[2] = target: T2, ProQ NTD D41A D41A (Escherichia coli); assay: EMSA; conditions: EMSA: 25 mM Tris pH 7.5, 150 mM NaCl, 5% glycerol, 1 mM MgCl2, 1 nM 32P-RNA, 30 min RT; microplates pretreated with 0.0025% BSA; 6% gel in 0.5x TBE at 4 C
[3] = target: T3, ProQ NTD K35A K35A (Escherichia coli); assay: EMSA; conditions: EMSA: 25 mM Tris pH 7.5, 150 mM NaCl, 5% glycerol, 1 mM MgCl2, 1 nM 32P-RNA, 30 min RT; microplates pretreated with 0.0025% BSA; 6% gel in 0.5x TBE at 4 C
[4] = target: T4, ProQ NTD R58A R58A (Escherichia coli); assay: EMSA; conditions: EMSA: 25 mM Tris pH 7.5, 150 mM NaCl, 5% glycerol, 1 mM MgCl2, 1 nM 32P-RNA, 30 min RT; microplates pretreated with 0.0025% BSA; 6% gel in 0.5x TBE at 4 C
[5] = target: T5, ProQ NTD T65A T65A (Escherichia coli); assay: EMSA; conditions: EMSA: 25 mM Tris pH 7.5, 150 mM NaCl, 5% glycerol, 1 mM MgCl2, 1 nM 32P-RNA, 30 min RT; microplates pretreated with 0.0025% BSA; 6% gel in 0.5x TBE at 4 C
[6] = target: T6, ProQ NTD R62A R62A (Escherichia coli); assay: EMSA; conditions: EMSA: 25 mM Tris pH 7.5, 150 mM NaCl, 5% glycerol, 1 mM MgCl2, 1 nM 32P-RNA, 30 min RT; microplates pretreated with 0.0025% BSA; 6% gel in 0.5x TBE at 4 C
[7] = target: T7, ProQ NTD R69A R69A (Escherichia coli); assay: EMSA; conditions: EMSA: 25 mM Tris pH 7.5, 150 mM NaCl, 5% glycerol, 1 mM MgCl2, 1 nM 32P-RNA, 30 min RT; microplates pretreated with 0.0025% BSA; 6% gel in 0.5x TBE at 4 C
[8] = target: T8, ProQ NTD K54A K54A (Escherichia coli); assay: EMSA; conditions: EMSA: 25 mM Tris pH 7.5, 150 mM NaCl, 5% glycerol, 1 mM MgCl2, 1 nM 32P-RNA, 30 min RT; microplates pretreated with 0.0025% BSA; 6% gel in 0.5x TBE at 4 C
[9] = target: T9, ProQ NTD Y70F Y70F (Escherichia coli); assay: EMSA; conditions: EMSA: 25 mM Tris pH 7.5, 150 mM NaCl, 5% glycerol, 1 mM MgCl2, 1 nM 32P-RNA, 30 min RT; microplates pretreated with 0.0025% BSA; 6% gel in 0.5x TBE at 4 C
ProQ NTD K35A [10] = target: T10, ProQ NTD K35A; assay: EMSA; EMSA: 25 mM Tris pH 7.5, 150 mM NaCl, 5% glycerol, 1 mM MgCl2, 1 nM 32P-RNA, 30 min RT; microplates pretreated with 0.0025% BSA; 6% gel in 0.5x TBE at 4 C; conditions: protein: recombinant; tags: His6-TEV removed, N-terminal Ser remains; label: 5'-32P; hairpin, no 5' single strand
ProQ NTD R69A [11] = target: T11, ProQ NTD R69A; assay: as above; conditions: protein: recombinant; tags: His6-TEV removed, N-terminal Ser remains; label: 5'-32P; hairpin, no 5' single strand
ProQ NTD R69A [12] = target: T11, ProQ NTD R69A; assay: EMSA; affinity not decreased vs R69A with cspE-3'; EMSA: 25 mM Tris pH 7.5, 150 mM NaCl, 5% glycerol, 1 mM MgCl2, 1 nM 32P-RNA, 30 min RT; microplates pretreated with 0.0025% BSA; 6% gel in 0.5x TBE at 4 C; conditions: protein: recombinant; tags: His6-TEV removed, N-terminal Ser remains; label: 5'-32P; hairpin with 5' and 3' single-stranded regions
ProQ NTD K35A [13] = target: T10, ProQ NTD K35A; assay: EMSA; EMSA: 25 mM Tris pH 7.5, 150 mM NaCl, 5% glycerol, 1 mM MgCl2, 1 nM 32P-RNA, 30 min RT; microplates pretreated with 0.0025% BSA; 6% gel in 0.5x TBE at 4 C; conditions: protein: recombinant, tags: His6-TEV removed, N-terminal Ser remains, label: 5'-32P
ProQ NTD R69A [14] = target: T11, ProQ NTD R69A; assay: as above; conditions: protein: recombinant; tags: His6-TEV removed, N-terminal Ser remains; label: 5'-32P; hairpin, 6 U tail (2 predicted single-stranded)
ProQ NTD K35A [15] = target: T10, ProQ NTD K35A; assay: EMSA; max fraction bound similar to WT; EMSA: 25 mM Tris pH 7.5, 150 mM NaCl, 5% glycerol, 1 mM MgCl2, 1 nM 32P-RNA, 30 min RT; microplates pretreated with 0.0025% BSA; 6% gel in 0.5x TBE at 4 C; conditions: protein: recombinant; tags: His6-TEV removed, N-terminal Ser remains; label: 5'-32P; terminator hairpin, 8 U 3' tail
ProQ NTD R69A [16] = target: T11, ProQ NTD R69A; assay: EMSA; max fraction bound 88%; EMSA: 25 mM Tris pH 7.5, 150 mM NaCl, 5% glycerol, 1 mM MgCl2, 1 nM 32P-RNA, 30 min RT; microplates pretreated with 0.0025% BSA; 6% gel in 0.5x TBE at 4 C; conditions: protein: recombinant; tags: His6-TEV removed, N-terminal Ser remains; label: 5'-32P; terminator hairpin, 8 U 3' tail
ProQ NTD R80K = target: T12, ProQ NTD R80K; assay: EMSA; EMSA: 25 mM Tris pH 7.5, 150 mM NaCl, 5% glycerol, 1 mM MgCl2, 1 nM 32P-RNA, 30 min RT; microplates pretreated with 0.0025% BSA; 6% gel in 0.5x TBE at 4 C; conditions: protein: recombinant; tags: His6-TEV removed, N-terminal Ser remains; label: 5'-32P; terminator hairpin, 8 U 3' tail
ProQ NTD R80A = target: T13, ProQ NTD R80A; assay: as above; conditions: protein: recombinant; tags: His6-TEV removed, N-terminal Ser remains; label: 5'-32P; terminator hairpin, 8 U 3' tail
ProQ NTD R62A = target: T14, ProQ NTD R62A; assay: EMSA; max fraction bound just above 40%; EMSA: 25 mM Tris pH 7.5, 150 mM NaCl, 5% glycerol, 1 mM MgCl2, 1 nM 32P-RNA, 30 min RT; microplates pretreated with 0.0025% BSA; 6% gel in 0.5x TBE at 4 C; conditions: protein: recombinant; tags: His6-TEV removed, N-terminal Ser remains; label: 5'-32P; terminator hairpin, 8 U 3' tail
ProQ NTD D41A = target: T15, ProQ NTD D41A; assay: EMSA; EMSA: 25 mM Tris pH 7.5, 150 mM NaCl, 5% glycerol, 1 mM MgCl2, 1 nM 32P-RNA, 30 min RT; microplates pretreated with 0.0025% BSA; 6% gel in 0.5x TBE at 4 C; conditions: protein: recombinant; tags: His6-TEV removed, N-terminal Ser remains; label: 5'-32P; terminator hairpin, 8 U 3' tail
ProQ NTD T65A = target: T16, ProQ NTD T65A; assay: as above; conditions: protein: recombinant; tags: His6-TEV removed, N-terminal Ser remains; label: 5'-32P; terminator hairpin, 8 U 3' tail

Molecule	binding signal (fold weaker Kd than WT) [2]	Kd [4] [µM]	binding signal (fold weaker Kd than WT) [5]	binding signal [6] [% max bound]	binding signal [8] [% max bound]	also measured
SibB	> 5	> 1	4			binding signal (fold weaker Kd than WT) [1]: 3; Kd [3]: > 1 µM
SibA	> 5	> 1	2	25		
SibB-5U						binding signal [7]: > 30 % max bound
malM-3'	3	> 1	2	25	30	binding signal (fold weaker Kd than WT) [1]: 1; binding signal [3]: 70 % max bound; binding signal [9]: < 20 % max bound
gapA-3'	1	> 1	1	< 20	< 20	binding signal (fold weaker Kd than WT) [1]: 1
RybB	2	> 1	1		< 20	binding signal [7]: < 40 % max bound
cspE81-3'	2	> 1	2	< 20	30	binding signal [9]: < 20 % max bound
B1						binding result (ProQ NTD K35A [10]): no binding; binding result (ProQ NTD R69A [11]): no binding
B2						binding result (ProQ NTD R69A [12]): binds; binding signal (ProQ NTD K35A [13]; hairpin with 5' and 3' single-stranded regions): ~2 fold weaker Kd than K35A with cspE-3'
B3						binding signal (ProQ NTD K35A [13]; hairpin, 6 U tail (2 predicted single-stranded)): ~1.4 fold weaker Kd than K35A with cspE-mini; binding signal (ProQ NTD R69A [14]): ~2.4 fold weaker Kd than R69A with cspE-mini
B4						binding result (ProQ NTD K35A [15]): binds; Kd (ProQ NTD R69A [16]): 0.02 µM; binding result (ProQ NTD R80K): no binding; binding result (ProQ NTD R80A): no binding; binding signal (ProQ NTD R62A): ~4 fold weaker Kd than WT; binding signal (ProQ NTD D41A): ~3 fold weaker Kd than WT; binding signal (ProQ NTD T65A): ~4 fold weaker Kd than WT
